Test results: patent US20230406926A1 (Kyowa Kirin, published 2023)

Tests used:
[1] = target: T1, His-tag-fused human CD3D&E protein (Sino Biological, Inc.) (human, UniProt P07766 23-126; P04234 22-105); experiment: SPR (Biacore), His-tagged human CD3D&E captured on anti-tetra His antibody, antibody as analyte, single cycle kinetics
T1 construct: also called soluble CD3; human CD3 protein
Description: The binding affinity of these antibodies for CD3 was measured by Biacore (GE Healthcare). Specifically, an anti-tetra His mouse antibody (QIAGEN NV.) was immobilized on a CM5 sensor chip at approximately 8000 RU using an amine coupling kit (GE Healthcare). As the coupling buffer, 10 mM sodium acetate (pH 4.5) was used. As the ligand, a His-tag-fused human CD3D&E protein (Sino Biological, Inc.) dissolved in HBS-EP(+) buffer at 5 μg/mL was captured at 5 μL/min for 120 seconds.
Subsequently, bispecific antibody solutions obtained by 2-fold serial dilution for 5 times from 10 μg/mL was added as the analyte at a flow rate of 30 μL/min, and binding reaction between each antibody and the analyte was measured for 2 minutes, and a dissociation reaction was measured for 5 minutes. The measurement was performed by single cycle kinetics method. The obtained sensorgram was analyzed using Bia Evaluation Software (GE Healthcare), and the kinetic constant of each antibody was calculated.

[2] = target: cynomolgus monkey CD3 on HSC-F cells (cynomolgus monkey, UniProt Q95LI5 22-198); experiment: flow cytometry, hybridoma supernatant on HSC-F cells, Alexa 647 anti-human IgG
Description: The screening of anti-CD3 antibody-producing hybridomas was performed by flow cytometry. Cells cultured in a flask for floating cell culture were collected, washed twice with PBS, and then suspended in a staining buffer (PBS containing 0.02% EDTA, 0.05% NaN₃, and 1% BSA), and prepared so that the viable cell count was 2.0 to 5.0×10⁵ cells/50 μL. […] As negative control cells, unstained KHYG-1 cells (JCRB cell bank JCRB156) were used.
These three types of cells were mixed in equal amounts, and the resultant was dispensed into a 96-well plate at 50 μL/well, and incubated on ice for 30 minutes, and then, an equal amount of the undiluted hybridoma supernatant solution was added thereto and mixed therewith, and placed at 4° C. for 30 minutes. […] After performing centrifugation of the cells and washing with a staining buffer twice, the cells were suspended in a staining buffer, and the fluorescent intensity was measured with a flow cytometer CyAn ADP (Beckman Coulter, Inc.).

HER2 = target: T2, HER2 (human, UniProt P04626 23-1255); experiment: flow cytometry competition by the method of Example 3 (SK-BR-3 cells): inhibition of the binding of fluorescently labeled Trastuzumab
T2 construct: whole, on cells; also called HER2 on the surface of the cell membrane
Description: Subsequently, binding inhibition analysis by flow cytometry was performed using an HER2-positive human breast cancer cell line SK-BR-3 (ATCC HTB-30).
As a negative control, human serum-derived IgG1/kappa (Millipore, Inc.) at the same concentration was added. After washing, mean fluorescent intensity (MFI) of the binding of SK-BR-3 cells was measured with a flow cytometer Cytomics FC 500 MPL (Beckman Coulter, Inc.).

CD3 on T cells = target: T3, CD3 on T cells (UniProt P07766 23-207, limits assumed); experiment: flow cytometry on T cells by the method of Example 3, fluorescently labeled secondary antibody
T3 construct: whole, on cells; also called CD3 on the surface of the membrane
T3 sequence (P07766 23-207 limits assumed): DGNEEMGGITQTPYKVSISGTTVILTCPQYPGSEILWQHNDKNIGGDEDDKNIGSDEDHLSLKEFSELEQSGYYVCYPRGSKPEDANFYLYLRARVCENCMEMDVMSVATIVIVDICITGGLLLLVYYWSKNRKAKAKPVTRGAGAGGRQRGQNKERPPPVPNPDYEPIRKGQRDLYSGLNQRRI
Description: Each of the various antibodies was added to T cells at a final concentration of 10 g/mL and allowed to react at 4° C. for 1 hour. After washing, Goat anti-Human IgG F(ab)₂-FITC (Acris Antibodies GmbH) diluted to 30 μg/mL was added thereto and allowed to react at 4° C. for 1 hour.
As a positive control, 30 μg/mL of an anti-CD3 antibody OKT-3 (abcam. plc) was used as the primary antibody, and Goat anti-mouse IgG F(ab)₂-FITC (Dako, Inc.) was used as the secondary antibody. After washing, the MFI of the antibody bound to T cells was measured with a flow cytometer Cytomics FC 500 MPL (Beckman Coulter, Inc.).

T1 sequence (P07766 23-126, chain 1 of 2): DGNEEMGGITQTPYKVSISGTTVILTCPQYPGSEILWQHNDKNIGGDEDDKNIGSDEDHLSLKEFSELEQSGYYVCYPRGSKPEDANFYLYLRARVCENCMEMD
T1 sequence (P04234 22-105, chain 2 of 2): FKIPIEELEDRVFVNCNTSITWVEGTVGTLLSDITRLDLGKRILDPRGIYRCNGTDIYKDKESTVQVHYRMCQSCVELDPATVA
Sequence of cynomolgus monkey CD3 on HSC-F cells (Q95LI5 22-198): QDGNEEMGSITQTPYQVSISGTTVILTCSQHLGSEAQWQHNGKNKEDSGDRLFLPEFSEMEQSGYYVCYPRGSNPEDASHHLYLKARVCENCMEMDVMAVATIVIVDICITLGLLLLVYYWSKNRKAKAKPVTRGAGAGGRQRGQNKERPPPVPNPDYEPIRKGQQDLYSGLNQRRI

B1: 4D5mut_scSP34_IgG1 (DF) (bispecific antibody)
chain 1: EVQLVESGGGLVQPKGSLKLSCAASGFTFNTYAMNWVRQAPGKGLEWVARIRSKYNNYATYYADSVKDRFTISRDDSQSILYLQMNNLKTEDTAMYYCVRHGNFGNSYVSWFAYWGQGTLVTVSSGGGGSGGGGSGGGGSQAVVTQESALTTSPGETVTLTCRSSTGAVTTSNYANWVQEKPDHLFTGLIGGTNKRAPGVPARFSGSLIGDKAALTITGAQTEDEAIYFCALWYSNLWVFGGGTKLTVLGTKYGPPCPPCPAPEFEGGPSVFLFPPKPKDTLMISRTPEVTCVVVDVSQEDPEVQFNWYVDGVEVHNAKTKPREEQFNSTYRVVSVLTVLHQDWLNGKEYKCKVSNKGLPSSIEKTISKAKGQPREPQVCTLPPSQEEMTKNQVSLSCAVKGFYPSDIAVEWESNGQPENNYKTTPPVLDSDGSFFLVSKLTVDKSRWQEGNVFSCSVMHEALHNRFTQKSLSLSLGK
chain 2: not shown
chain 3: not shown
Kd [1]: 12.6 nM

B2: 4D5mut_scSP34(H05′)_IgG1 (DF) (bispecific antibody)
chain 1: EVQLVESGGGLVQPKGSLKLSCAASGFTFNTYAMNWVRQAPGKGLEWVARIRSKYNNYATYYADSVKDRFTISRDDSQSILYLQMNNLKTEDTAMYYCVRHGNFGNSDVSWFAYWGQGTLVTVSSGGGGSGGGGSGGGGSQAVVTQESALTTSPGETVTLTCRSSTGAVTTSNYANWVQEKPDHLFTGLIGGTNKRAPGVPARFSGSLIGDKAALTITGAQTEDEAIYFCALWYENLWVFGGGTKLTVLGTKYGPPCPPCPAPEFEGGPSVFLFPPKPKDTLMISRTPEVTCVVVDVSQEDPEVQFNWYVDGVEVHNAKTKPREEQFNSTYRVVSVLTVLHQDWLNGKEYKCKVSNKGLPSSIEKTISKAKGQPREPQVCTLPPSQEEMTKNQVSLSCAVKGFYPSDIAVEWESNGQPENNYKTTPPVLDSDGSFFLVSKLTVDKSRWQEGNVFSCSVMHEALHNRFTQKSLSLSLGK
chain 2: not shown
chain 3: not shown
Kd [1]: 108 nM

B3: anti-CD3 monoclonal antibody KM14 (antibody, V domains shown)
VH: QVQLVESGGGVVQPGRSLRLSCEASGFTFSSHGMHWVRQAPGKGLEWVASIWYDGSKKYYADSVKGRFTISRDNSKNTLDLQMNSLRAEDTAVYYCAKTLYYYGSERAHGLDVWGQGTTVTVSS
VL: AIQLTQSPSSLSASVGDRVTITCRASQGISSALAWYQQKPGKAPNLLIYDASSLESGVPSRFSGSGSGTDFTLTISSLQPEDFATYYCQQFNSYPRTFGQGTKVEIK
notes: also called hybridoma clone KM14
binding result [2]: binds

B4: DNP2_IgG1 (DF) (antibody, V domains shown)
VH: QVQLVQSGAEVKKPGASVKVSCKASGYTFTSYGISWVRQAPGQGLEWMGWISAYNGNTNYAQKLQGRVTMTTDTSTSTAYMELRSLRSDDTAVYYCARWDSSSWSFDYWGQGTLVTVSS
VL: DIQMTQSPSSLSASVGDRVTITCRASQGISSWLAWYQQKPEKAPKSLIYAASSLQSGVPSRFSGSGSGTDFTLTISSLQPEDFATYYCQQYNSYPYTFGQGTKLEIKR
notes: also called IgG1-type anti-2,4-dinitrophenyl (DNP) antibody, clone DNP2
binding result (HER2): no binding
binding result (CD3 on T cells): no binding (tested: 10 nM)
